What is called Kd is the free concentration of one partner at which half of the binding sites on the other are occupied at equilibrium, for simple one-to-one binding.

Results on 27 molecules are retold here after patent publication US20110059504A1 (GENERAL HOSPITAL, published 2011).

T1: human myostatin (human, UniProt O14793 267-375, biotinylated in selections and radioactive assays (site not stated))
T1 construct: Phage ELISA used both unbiotinylated and biotinylated myostatin; also called biotinylated human myostatin; myostatin-biotin
T1 sequence (looked up): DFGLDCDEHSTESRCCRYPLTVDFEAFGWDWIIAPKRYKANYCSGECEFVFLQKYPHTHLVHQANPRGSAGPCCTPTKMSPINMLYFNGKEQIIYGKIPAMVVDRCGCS

B1: 39633-C1 (designed binder)
chain: MTIPEIIIKVRGTQVVGSDMTVIVEFTNPFKETLRSVWVHLDGPGVTRPMKKMFREIPPKTTVQWEEVVRPWVSGHRKLIASMRTQYLIHLYGELDVQIQRRDYKDDDDK
notes: group M1-A50; V91L; also called M17 (clone ID)
B2: 39633-G5 (designed binder)
chain: MTIPEIIIKVRGTQVVGSDMTVIVEFTNPFKETLRSVWVHLDGPGVTRPMKKMFSEIRPNSTVQWEEVVRPWVSGHRKLIASMRTQYLIHLYGELDVQIQRRDYKDDDDK
notes: group M1-A50; V91L
B3: 39885-A1 (designed binder)
chain: MTIPEIIIKVRGTQVVGSDMTVIVEFTNPLKETLRNVWVHLDGPGVTRPMKKMFPAIPMNHKVQWEEVVRPWVSGHRKLIASMPQLFHIHVYGELDVQIQRRDYKDDDDK
notes: group M1-A; also called M1-1 (clone ID)
B4: 39633-E4 (designed binder)
chain: MTIPEIIIKVRGTQVVGSDMTVIVEFSNPFKETLRNVWVHLDGPGVTRPMKKMFSEIRPDSTVQWEEVVRPWVSGHRKLIASMPSLLHLHVYGELDVQIQRRDYKDDDDK
notes: group M2-A50; also called M019 (clone ID)
B5: 39633-D3 (V39M) (designed binder)
chain: MTIPEIIIKVRGTQVVGSDMTVIVEFSNPFKETLRNVWMHLDGPGVTRPMKKMFSEIRPNSTVQWEEVVRPWVSGHRKLIASMPSLLHLHVYGELDVQIQRRDYKDDDDK
notes: group M2-A50; V39M
B6: 39885-F7 (designed binder)
chain: MTIPEIIIKVRGTQVVGSDMTVIVEFTNPLKETLRNVWVHLDGPGVTRPMKKMFPTIPMNHKVQWEEVVRPWVSGHRKLIASMPHLFHIHVYGELDVQIQRRDYKDDDDK
notes: group M1-A
B7: 39885-F10 (S82C) (designed binder)
chain: MTIPEIIIKVRGTQVVGSDMTVIVEFTNPLKETLRNVWVHLDGPGVTRPMKKMFPAIPMNHKVQWEEVVRPWVSGHRKLIACMPQLFHIHVYGELDVQIQRRDYKDDDDK
notes: group M1-A; S82C
B8: 39885-H9 (designed binder)
chain: MTIPEIIIKVRGTQVVGSDMTVIVEFTNPLKETLRNVWVHLDGPGVTRPMKKMFPAIPMNHKVQWEEVVRPWVSGHRKLIASMINYFYNHVYGELDVQIQRRDYKDDDDK
notes: group M2-A
B9: 39885-C1 (designed binder)
chain: MTIPEIIIKVRGTQVVGSDMTVIVEFTNPLKETLRNVWVHLDGPGVTRPMKKMFPAIPMNHKVQWEEVVRPWVSGHRKLIASMLNHFYKHVYGELDVQIQRRDYKDDDDK
notes: group M2-A
B10: 39908-H10 (designed binder)
chain: MTIPEIIIKVRGTQVVGSDMTVIVEFTNPFKETLRSVWVHLDGPGVTRPMKKMFREIPPKTTVQWEEVVRPWVSGHRKLIASMPSLLHLHVYGELDVQIQRRDYKDDDDK
notes: group M2-A50; also called M4 (clone ID)
B11: 39908-G12 (designed binder)
chain: MTIPEIIIKVRGTQVVGSDMTVIVEFTNPFKETLRSVWVHLDGPGVTRPMKKMFSEIRPNSTVQWEEVVRPWVSGHRKLIASMPSLLHLHVYGELDVQIQRRDYKDDDDK
notes: group M2-A50; also called M10 (clone ID)
B12: 39633-H6 (M50V) (designed binder)
chain: MTIPEIIIKVRGTQVVGSDMTVIVEFTNPFKETLRSVWVHLDGPGVTRPVKKMFREIPPKTTVQWEEVVRPWVSGHRKLIASMPSLLHLHVYGELDVQIQRRDYKDDDDK
notes: group M2-A50; M50V
B13: 39888-A11 (D42N) (designed binder)
chain: MTIPEIIIKVRGTQVVGSDMTVIVEFTNPLKETLRNVWVHLNGPGVTRPMKKMFPAIPMNHKVQWEEVVRPWVSGHRKLIASMPQLFHIHVYGELDVQIQRRDYKDDDDK
notes: group M1-A; D42N; also called M14-1 (clone ID); 39888-All(D42N)
B14: 39885-C7 (designed binder)
chain: MTIPEIIIKVRGTQVVGSDMTVIVEFTNPLKETLRNVWVHLDGPGVTRPMKKMFRAIPMNHKVQWEEVVRPWVSGHRKLIASMPQLFHIHVYGELDVQIQRRDYKDDDDK
notes: group M1-A; also called M3-1 (clone ID)
B15: 39885-F8 (designed binder)
chain: MTIPEIIIKVRGTQVVGSDMTVIVEFTNPLKETLRNVWVHLDGPGVTRPMKKMFPAIPMNHKVQWEEVVRPWVSGHRKLIASMPQLFHLHVYGELDVQIQRRDYKDDDDK
notes: group M1-A; also called M7-L (clone ID)
B16: 39633-D2 (designed binder)
chain: MTIPEIIIKVRGTQVVGSDMTVIVEFTNLMKETLRNVWVHLDGPGVTRPMKKMFSEIRPNSTVQWEEVVRPWVSGHRKLIASMPSLLHLHVYGELDVQIQRRDYKDDDDK
notes: group M2-A50
B17: 39908-G4 (designed binder)
chain: MTIPEIIIKVRGTQVVGSDMTVIVEFSNPFKETLRNVWVHLDGPGVTRPMKKMFSEIRPNSTVQWEEVVRPWVSGHRKLIASMPSLLHLHVYGELDVQIQRRDYKDDDDK
notes: group M2-A50; also called M7 (clone ID)
B18: 39633-A1 (designed binder)
chain: MTIPEIIIKVRGTQVVGSDMTVIVEFTNPFKETLRSVWVHLDGPGVTRPMKKMFREIPPNTTVQWEEVVRPWVSGHRKLIASMPTHHLLHVYGELDVQIQRRDYKDDDDK
notes: group M4-A50
B19: 39888-G5 (S82I) (designed binder)
chain: MTIPEIIIKVRGTQVVGSDMTVIVEFTNPLKETLRNVWVHLDGPGVTRPMKKMFPAIPMNHKVQWEEVVRPWVSGHRKLIAIMPQLFHIHVYGELDVQIQRRDYKDDDDK
notes: group M1-A; S82I
B20: 39885-B5 (F26V) (designed binder)
chain: MTIPEIIIKVRGTQVVGSDMTVIVEVTNPLKETLRNVWVHLDGPGVTRPMKKMFPAIPMNHKVQWEEVVRPWVSGHRKLIASMPQLFHIHVYGELDVQIQRRDYKDDDDK
notes: group M1-A; F26V; also called M2-1 (clone ID)
B21: 39885-C11 (designed binder)
chain: MTIPEIIIKVRGTQVVGSDMTVIVEFTNPLKETLRNVWVHLDGPGVTRPMKKMFPAIPMNHKVQWEEVVRPWVSGHRKLIASMINYFYKHVYGELDVQIQRRDYKDDDDK
notes: group M2-A
B22: 39973-C10 (designed binder)
chain: MTIPEIIIKVRGTQVVGSDMTVIVEFTNPLKETLRNVWVHLDGPGVTRPMKKMFPTISRFKRVQWEEVVRPWVSGHRKLIASMPQLQHLHVYGELDVQIQRRDYKDDDDK
notes: group M1-A
B23: 39885-G8 (designed binder)
chain: MTIPEIIIKVRGTQVVGSDMTVIVEFTNPLKETLRNVWVHLDGPGVTRPMKKMFPTIPMNHKVQWEEVVRPWVSGHRKLIASMPQLFHIHVYGELDVQIQRRDYKDDDDK
notes: group M1-A; also called M10-3 (clone ID)
B24: 39885-G5 (designed binder)
chain: MTIPEIIIKVRGTQVVGSDMTVIVEFTNPLKETLRNVWVHLDGPGVTRPMKKMFPAIPYLSYVQWEEVVRPWVSGHRKLIASMPQLHHLHVYGELDVQIQRRDYKDDDDK
notes: group M1-A; also called M8-L (clone ID)
B25: 39888-B7 (designed binder)
chain: MTIPEIIIKVRGTQVVGSDMTVIVEFTNPLKETLRNVWVHLDGPGVTRPMKKMFPAIPMNHKVQWEEVVRPWVSGHRKLIASMNSSSNQHVYGELDVQIQRRDYKDDDDK
notes: group M3-A
B26: 39885-D8 (K9R) (designed binder)
chain: MTIPEIIIRVRGTQVVGSDMTVIVEFTNPLKETLRNVWVHLDGPGVTRPMKKMFPAIPMDHKVQWEEVVRPWVSGHRKLIASMPQLFHIHVYGELDVQIQRRDYKDDDDK
notes: group M1-A; K9R; also called M5-2 (clone ID)
B27: 39885-D11 (designed binder)
chain: MTIPEIIIKVRGTQVVGSDMTVIVEFTNPLKETLRNVWVHLDGPGVTRPMKKMFPAIPMNHKVQWEEVVRPWVSGHRKLIASMINHFYKHVYGELDVQIQRRDYKDDDDK
notes: group M2-A

This assay concerns the target T1, human myostatin. In words: radioactive equilibrium binding assay. On the procedure:
Affinities of selected F13β2 binders to biotinylated myostatin were determined in radioactive equilibrium binding assay (FIGS. 11A and 11B; Table 3). ³⁵S-labeled binder proteins from selection pools and single clones were produced in vitro in a rabbit reticulocyte lysate translation kit (Ambion) and purified on M2-agarose (Sigma). Varying concentrations of biotinylated human myostatin (0-100 nM) or other proteins (protein 1: 100 nM; peptide 1: 250 nM; protein 2: 50 nM) were incubated with a constant concentration of the purified binder protein (1 or 2 nM) at 30° C. for 30 min in buffer B (1×PBS, 0.02% Triton X-100 [pH 7.4]). The receptor-binder complexes were captured by using 25 μl of M280 or Protein A (Dynal) (protein 2) magnetic beads for 10 min at room temperature on a Kingfisher instrument (Thermo Fisher Scientific). The beads were washed five times with 100 μl buffer B, and the amount of ³⁵S-methionine remained on the beads was measured by scintillation counting. Data were analyzed by using the GraphPad Prism software (GraphPad Software, Inc., San Diego, Calif.), fitted with a one-site, nonlinear binding equation. For inhibition assay the binding of ³⁵S-labeled proteins to 20 or 25 nM of biotinylated human myostatin was performed in the presence of varying concentrations of inhibitor (human activin receptor IIB/Fc chimera (R&D Systems, Minneapolis, Minn.) (0-250 nM); protein 1 (100 nM), peptide 1 (250 nM), protein 2 (50 nM); proteins, produced in E. coli, M17, M7, M29, M21, M1-1, WT F13β2 (500 nM)).
In the case of B1, the B max was determined as 74.8% and the Kd was found to be 39.9 nM.
Taken in the same sequence, the figures for B2 were 64.1% and 33.6 nM.
The like results for B3 were, in that order, 67.3% and 21.8 nM.
The like results for B4 were, in that order, 60% and 27.8 nM.
For B5, the B max was 65.8% and the Kd came to 26.2 nM.
With B6, the B max is 62.7% and the Kd turned out to be 24.1 nM.
Take B7: the B max is 73.7% and the Kd came out at 15.4 nM.
For B8, the B max was found to be 24.1% and the Kd was found to be 14.1 nM.
Taken in the same sequence, the figures for B9 were 33.3% and 140 nM.
Taken in the same sequence, the figures for B10 were 47.3% and 29.7 nM.
Regarding B11, the B max was 34.1% and the Kd worked out at 25.6 nM.
Turning to B12, the B max turned out to be 61.6% and the Kd was determined as 24.8 nM.
For B13, the B max turned out to be 82.4% and the Kd came out at 13.6 nM.
The like results for B14 were, in that order, 68.4% and 17.4 nM.
Taken in the same sequence, the figures for B15 were 98.6% and 28.1 nM.
Taken in the same sequence, the figures for B16 were 6.74% and 11.2 nM.
Consider B17, for which the B max was 49% and the Kd is 28.4 nM.
Taken in the same sequence, the figures for B18 were 63.9% and 25.5 nM.
The like results for B19 were, in that order, 83.1% and 9.99 nM.
Regarding B20, the B max amounted to 72.2% and the Kd was 25.1 nM.
Taken in the same sequence, the figures for B21 were 18.8% and 41.6 nM.
Taken in the same sequence, the figures for B22 were 72% and 22.8 nM.
The like results for B23 were, in that order, 69.2% and 30.8 nM.
With B24, the B max is 59.4% and the Kd is 28.5 nM.
Taken in the same sequence, the figures for B25 were 1.19% and 7.09 nM.
Take B26: the B max was 57.6% and the Kd turned out to be 24.7 nM.
Taken in the same sequence, the figures for B27 were 22.3% and 41 nM.
